Test results: the RNAGym collection of RNA variant scans (doi:10.1073/pnas.2313332121)

B1: TPR t1 (parent)
chain: GACCAAUCUGCCCUCAGAGCUCGAGAACAUCUUCGGAUGCAGAGGAGGCAGGCUUCGGUGGCGCGAUAGCGCCAACGUCCUCAACCUCCAAUGCAUCCCACCACAUGAUGAUGCCUGAAGAGCCUUGGUUUUUUG

Variants of: B1
Experiment: polymerase ribozyme fitness, log enrichment relative to wild type (log ratio); higher = more active; in vitro selection for triplet polymerase activity
Procedure, shortened: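 Both subunits of a heterodimeric triplet polymerase ribozyme were given their own mutant library, built by PCR and transcribed. Each library was annealed with a biotinylated primer, the partner subunit and triplets, incubated frozen at −7 °C, and its extended constructs gel-excised, captured on streptavidin beads and amplified by RT-PCR, all in one round done in triplicate. Fitness is the logarithm of genotype enrichment relative to wild-type enrichment, with replicates averaged by inverse-variance weighting. That logarithm is base 2, and Illumina-sequenced genotypes needed ≥10 input reads and ≥1 read per output.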

In order of rising “polymerase ribozyme fitness (log ratio)” value:
1. GACCAAUCUGCCCUCAGAGCUCGAGAACAUCUUAGGAUGCAAAGGAGGCAGGCUUCGGUGACGCGAUAGCGCCAACGUCCUCAACCUCCAAUGCAUCCCACCACAUGAUGAUGCCUCAAGAGCCUUGGUUCUUUG [C34A G42A G61A G117C U131C]  -7.25
2. GACCAAUCUGCCCUCAGAGCUCGAGAACAUCUUAGGAUGCAGAGGAGGCAGGCUUCGGUGGCGCUAUAGCGCCAACGUCCUGAACCUCCAAUGCAUCCCACCACAUGAUGGUGCCGGAAGAGCCUUGGUUUUUUG [C34A G65U C82G A111G U116G]  -6.99
3. GACCAAUCUGCCCUCAGAGCUCGAGAACAUCUUAGGAUGCAGAGGAGGCAGGCUUCGGUGGCGCGAUAGCGCCAACGUGCUCAACCUCCAAUGCAUCCCACCACAUGAUGAUGCCUGAAGAGCCUUGGUUUUUUG [C34A C79G]  -6.59
4. GACCAAUCUGCCCUCAGAGCUCGAGAACAUCUUAGGAUGCAGAGGAGGCAGGCUUCGGUGGCGCGAUAGCGCCAACGUCCUCAACCUCCAAUGCAUCCCACCACAUGACGAUGCCUGAAGAGCCUUGGUUUUUUG [C34A U109C]  -6.24
5. GACCAAUCUGCCCUCAGAGCUCGAGAACAUCUUAGGAUGCAGAGGAGGCAGGCUUCGGUGGCGCGAUAGCGCCAACGUCCUCAACCUCCAAUGCAUCCCACCACAUGAUGAUGCCUUAAGAGCCUUGGUUUUUUG [C34A G117U]  -6.2
6. GACCAAUCUGCCCUCAGAGCUCGAGAACAUCUUGGGAUGCAGAGGUGGCAGGCUUCGGUGGCGCGAUAGCGCCAACGUCCUCAACCUCCAAUGCAUCCCACCACAUGAUGAUGCCUGAAGAGCCUUGGUUUUUUG [C34G A46U]  -6.06
7. GACCAAUCUGCCCUCAGAGCUCGAGAACAUCUUAGGAUGCAGAGGAGGCAGGCUUCGGUGGCCCGAUAGCGCCAACGUCCUCAACCUCCAAUGCAUCCCCCCAAAUGAUGAUGCCUGAAGAGCCUUGGUUUUUUG [C34A G63C A100C C104A]  -6.04
8. GACCAAUCUGCCCUCAGAGCUCGAGAACAUCUUAGGAUGCAGAGGAGGCAGGCUUCGGUGGCGCGAUAGCACCAACGCCCUCAACCUCCAAUGUAUCCCACCACAUGAUGAUGCCUGAAGAGCCAUGGUUUUUUG [C34A G71A U78C C94U U125A]  -5.82
9. GACCAAUCUGCCCUCAGAGCUCGAGAACAUCUUAGGAUGCAGAGGAGGCAGGCUUCGGUCGCGCGAUAGCGCCAACGUCCUCAACCUCCAAUGCAUCCCGCCACAUGAUGAUGCCUGAAGAGCCUUGGUUUUUUG [C34A G60C A100G]  -5.76
10. GACCAAUCUGCCCUCAGAGCUCGAGAACAUCUUAGGAUGCAGAGGAGGCAGGCUUCGGUGGCGCGAUAGCGCCAACGUCCUCAACCUCCAAUGCAUCCCACCACAUGAUGAUCCCUGAAGAGCCUUGGUUUUUUG [C34A G113C]  -5.75
11. GACCAAUCUGCCCUCAGAGCUCGAGAACAUCUUGGGAUGCAGUGGAGGCAGGCUUCGGUCGCGCGAUAGCGCCAACGUCCUAAACCUCCAAUGCAUCCCUCCACAUGAUGAUGUCUGAAGAGCCUUGGUCUAUCG [C34G A43U G60C C82A A100U C114U U130C U132A U134C]  -5.7
12. GACCAAUCUGCCCUCAGAGCUCGAGAACAUCUUAGGAUGCAGAGGAGGCAGGCUUCGGUGGCGCGAUAGCGCCAACGUCCUCAACCUCAAAUGCAUCCCACCACAUGAUGAUGCCUGAAGAGCCUUGGUUUUUUG [C34A C89A]  -5.68
13. GACCAAUCUGCCCUCAGAGCUCGAGAACAUCUUAGGAUGCAGAGGAGGCAGGCUUCGGUGGCGCGAUAGCGCCAACGUCCUCAACCUCCAAUGCAUCCCACCACAUGAUGAUGGCUGAAGAGCCUUGGUUUUUUG [C34A C114G]  -5.41
14. GACCAAUCUGCCCUCAGAGCUCGAGAACAUCUUAGGAUGCAGAGGAGGCAGGCUUCGGUGGCGCGAUACCGCCAACGUCCUCAACCUCCAAUGCAUCCCACCACAUGAUGGUGCCUGAAGAGCCUUGGUUUUUUG [C34A G69C A111G]  -5.23
15. GACCAAUCUGCCCUCAGAGCUCGAGAACAUCUUAGGAUGCAGAGGAGGCAGGCUUCGGUGGCGCGAUAGCGUCAACGUCCUCAACCUCCAAUGCAUCCCACCACAUGAUGAUGCCGGAAGAGCCUUGGUUUUUUG [C34A C72U U116G]  -5.21
16. GACCAAUCUGCCCUCAGAGCUCGAGAACAUCUUAGGAUGCAGAGGAGGCAGGCUUCGGUGGCGCGAUAGCCCCAACGUCCUCAACCUCCAAUGCAUCCCACCACAUGAUGAUGCCUGAAGAGCCUUGGCUUUUUG [C34A G71C U129C]  -5.07
17. GACCAAUCUGCCCUCAGAGCUCGAGAACAUCUUAGGAUGCAGAGGAGGCAGGCUUCGGUCGCGCGAUAGCGCCAACGUCCUCAACCUCCAAUGCAUCCCACCACAUGAUGAGGCCUGAAGAGCCUUGGUAUUAUG [C34A G60C U112G U130A U133A]  -4.54
18. GACCAAUCUGCCCUCAGAGCUCGAGAACAUCUUAGGAUGCAGAGGAGGCAGGCUUCGGUGUCGCGAUAGCGCCAACGUCCUCAACCUCCAAUGCAUCCCACCACAUGAUGAGGCCUGAAGAGACUUGGUUUUUUG [C34A G61U U112G C123A]  -4.54
19. GACCAAUCUGCCCUCAGAGCUCGAGAACAUCUUAGGAUGCAGAGGAGGCAGUUUUCGGUGGCGCGAUAGCGCCAACGUCCUCAACCUCCUAUGCAUCCCACCACAAGAUGAUGCCUGAAGAGCCUUGGUUUUUUG [C34A G52U C53U A90U U106A]  -4.54
20. GACCAAUCUGCCCUCAGAGCUCGAGAACAUCUUAGGAUGCAGAGUAGGCAGGCUUCGGUGGCGCGAUAGCGCCAACGUCCUCAACCUCCAAUGCAUCCCACCACAUGAUGAUGCCUGAAGAGCCUUGGUUUUUUG [C34A G45U]  -4.49
21. GACCAAUCUGCCCUCAGAGCUCGAGAACAUCUUAGGAUGCAGAGGAGGCAGGCUCCGGUAGCGCGAUAGCGCCAACGUCCUCAACCUCCAAUGCAUCCCACCACAUGAUGAUGCCUGAAGAGCCUUGGGUUUUUG [C34A U55C G60A U129G]  -4.44
22. GACCAAUCUGCCCUCAGAGCUCGAGAACAUCUUAAGAUGCAGAGGAGGCAGGCUUCGGUGGCGCGAUAGCGCCAACGUCCUCAACGUCCAAUGCAUCCCACCACAUGAUGACGCCUGAAGAGCCUUGGUUUUUUG [C34A G35A C86G U112C]  -4.41
23. GACCAAUCUGCCCUCAGAGCUCGAGAACAUCUUAGGAUUCAGAGGAGGCAGGCUUCGGUGGCGCGAUAGCGCGAACGUCCUCAACCUCCAAUGCAUCACACCACAUGAUGAUGCCUGAAGAGCCUUGGUUUUUUG [C34A G39U C73G C98A]  -4.33
24. GACCAAUCUGCCCUCAGAGCUCGAGAACAUCUUAGGAUGCAGAGGAGGCAGGCUUCGGUGGCGCGAUAGCGCCAACGUCCUCAACCUCCAAUGCAUGCCACCACAUGAUGAUGCCUGAAGAGCCUUGGUUUUUUG [C34A C97G]  -4.18
25. GACCAAUCUGCCCUCAGAGCUCGAGAACAUCUUAGGAUGCAGAGGAGGCAGGCUUCGGUGGCGCGAUAGCGCCAACGUCCUCAACCUCUAAUGCAUCCCACCACAUGAUGAUGCCUGAAGAGCCUUGGUUUUUUG [C34A C89U]  -4.08
26. GACCAAUCUGCCCUCAGAGCUCGAGAACAUCUUAGGAUGCAGAGGAGGCAGGCUUCGGUGGCGCGAUAGCGCCAACGUCCUCAACCUCCAAUGCAUCCCACCACAUGAUGAUACCUGAAGAGCCUUGGUUUUUUG [C34A G113A]  -4.03
27. GACCAAUCUGCCCUCAGAGCUCGAGAACAUCUUAGGAUGCAGAGGAGGCAGGCUACGGUGGCGCGAUAGCGCCAACGUCCUCAACCUACAAUGCAUCCCACCACAUGAUGAUGCCUGAAGAGCCUUGGUUUUUUG [C34A U55A C88A]  -3.93
28. GACCAAUCUGCCCUCAGAGCUCGAGAACAUCUUAGGAUGCAGAGGAGGCAGGCUUCGGUGGCGCGAUAGCGCCAACGUCCUCAACCUCCAAUGCAUCCCACCACAUGAUGAUGCCUGAAGAGCCUUCGUUUUUUG [C34A G127C]  -3.8
29. GACCAAUCUGCCCUCAGAGCUCGAGAACAUCUUAGGAUGCAGAGGAGGCAGGCUUCGGUGACGCGAUAGCGCCAACGUCCUCAACCUCCAAUGCAUCCCACCACAUGAUGAUGCCUGAAGAGCCUUGGUUUUUUG [C34A G61A]  -2.98
30. GACCAAUCUGCCCUCAGAGCUCGAGAACAUCUUAGGAUGCAGAGGAGGCAGGCUUCGGUGGCGCGAUAGCUCCAACGUCCUCAACCUCCAAUGCAUCCCACCACAUGAUGAUGCCUGAAGAGCCUUGGUUUUUUG [C34A G71U]  -2.95
31. GACCAAUCUGCCCUCAGAGCUCGAGAACAUCUUAGGAUGCAGAGGAGGCAGGCUUCGGUGGCGCGAUAGCGCCAACGUCCUCAACCACCGAUGCAUCCCACCACAUGAUGAUGCCUGAAGAGCCUUGGUUUUUUG [C34A U87A A90G]  -2.87
32. GACCAAUCUGCCCUCAGAGCUCGAGAACAUCUUAGGAUGCAGAGGAGGCAGGCUUCGAUGGCGCGAUAGCGCCAACGUCCUCAACCUCCAAUGCAUCCCACCACAUGAUGAUGCCUGAAGAGCCUUGGUUUUUUG [C34A G58A]  -2.81
33. GACCAAUCUGCCCUCAGAGCUCGAGAACAUCUUAGGAUGCAGAGGAGGCAGGCUUCGGUGGCGCGAUAGCGCCAACGUCCUAAACCUCCAAUGCAUCCCACCACAUGAUGAUGCCUGAAGAGCCUUGGUUUUUUG [C34A C82A]  -2.72
34. GACCAAUCUGCCCUCAGAGCUCGAGAACAUCUUAGGAUGCAGAGGAGGCAGGCUUCGGUGGCGCGAUAGCGCCAACGUUCUCAACCUCCAAUGCAUCCCACCACAUGAUGAUGCCUGAAGAGCCUUGGUUUUUUG [C34A C79U]  -2.71
35. GACCAAUCUGCCCUCAGAGCUCGAGAACAUCUUAGGAUGCAGAGGAGGCAGGCUUCGGUGGCGCGAUAGCGCCAACUUCCUCAACCUCCAAUGCAUCACACCACAUGAUGAUGCCUGAAGAGCCUUGGUUUUUUG [C34A G77U C98A]  -2.63
36. GACCAAUCUGCCCUCAGAGCUCGAGAACAUCUUAGGAUGCAGAGGAGGCAGGCUUCGGUGGCGCGAUAGCGCAAACGUCCUCAACCUCCAAUGCAUCCCACCACAUGAUGAUGCCUGAAGAGCCUUGGUUUUUUG [C34A C73A]  -2.46
37. GACCAAUCUGCCCUCAGAGCUCGAGAACAUCUUAGGAUGCAGAGGAGGCAGGCUUCGGUGGCGCGAUAGCGCCAACGUCCUCAACCUCCAAUGCAUCUCACCACAUGAUGAUGCCUGAAGAUCCUUGGUUUUUUG [C34A C98U G122U]  -2.46
38. GACCAAUCUGCCCUCAGAGCUCGAGAACAUCUUAGGAUGCAGAGGAGGCAGGCUUCGGUGGCGCGAUAGCGCCAACGCCCUCAACCUUCAAUGCAUCCCACCACAUGAUGAUGCCUGAAGAGCCUUGGUUUUUUG [C34A U78C C88U]  -1.84
39. GACCAAUCUGCCCUCAGAGCUCGAGAACAUCUUAGGAUGCAGAGGAGGCAGGCUUCGGUGGCGCGAUAGCGCCAACGUCCUCAACCUCCAAUGCAUCCCACCACAUGAUGAAGCCUGAAGAGCCUUGGUUUUUUG [C34A U112A]  -1.81
40. GACCAAUCUGCCCUCAGAGCUCGAGAACAUCUUAGGAUGCAGAGGAGGCAGGCUUCGGUGGCGCGAUAGCGCCAACGUCCUCAACCUCCAAUGCAUCCCACUACAUGAUGAUGCCUGAAGAGCCUUGGUUUUUUG [C34A C102U]  -1.64
41. GACCAAUCUGCCCUCAGAGCUCGAGAACAUCUUAGGAUGCAGAGGAGGCAGGCUUCGGUGGCGCGAUAGCGCCAACGUCCUCAACCUCCAAUGCAUCCCACCACAUGAUGAUGCCUGAAGAGUCUUGGUUUUUUG [C34A C123U]  -1.54
42. GACCAAUCUGCCCUCAGAGCUCGAGAACAUCUUAGGAUGCAGAGGAGGCAGGCUUCGGUGGCGCGAUAGCGCCAACGUCCUCAACCUCCAAUGCAUCCCACCACAUGAUGAUGCCUGAAGAGGCUUGGUUUUUUG [C34A C123G]  -0.401
